Source: article PMC11995678
Read-outs that look alike come from different tables or passages of the source.

What was measured:
His662 [1] = target: T1, His662 (UniProt position 662, MKQVKHIPESK); assay: NMR; conditions: 35 °C (default for NMR experiments; not restated for the titration), 50 mM NaCl, 20 mM Tris, 10 mM CHAPS, no CaCl2, formate and imidazole included as internal pH indicators, pH adjusted with 1 M HCl, Ca2+-free (apo), Ca2+-binding-deficient mutant, folded
His662 [2] = target: T1, His662; conditions: cited from earlier work

Substance	pKa (His662 [1])	pKa (His662 [2]; Ca2+-bound (holo) WT)	pKa (His662 [2]; Ca2+-free (apo) WT)
LETM1 F-EF-hand domain D676A/N678A (AEA) mutant (Homo sapiens; D676A;N678A)	6.58 ± 0.06	–	–
LETM1 F-EF-hand domain, wild type (Homo sapiens)	–	~6.28	~6.39
